These results are taken from PMC8880779.

Assay [1] concerns the target Human Aβ(1–42)-HiLyte™-Fluor555 (human) (UniProt P05067). The assay is described as follows: other fluorescence titration; reversion of the fluorescence increase: 100 nM non-labelled Aβ(1–42) added after complex formation of 10 nM Aβ(1–42) HiLyte Fluor555 with 5 nM CaM; same buffer, 24–25 °C.
Assay [2] shares this target. The assay is described as follows: other fluorescence titration; kinetics of the fluorescence increase of 10 nM Aβ(1–42) HiLyte Fluor555 after addition of 5 nM CaM (series 2.5, 5, 10 nM for the maximum change); 50 mM Hepes, 100 mM KCl, 50 µM CaCl2, pH 7.05; 24–25 °C; excitation 520 nm, emission 567 nm.
Assay [3] has the same target. Kind of assay: other fluorescence titration; kinetics of the fluorescence increase of 10 nM Aβ(1–42) HiLyte Fluor555 after addition of 10 nM CaM (1:1 molar ratio); 50 mM Hepes, 100 mM KCl, 50 µM CaCl2, pH 7.05; 24–25 °C.

In the case of “calmodulin (CaM) (from UniProt P62157 1-149) (natural protein; other documents disagree on this pair)”, in assay [1], the time needed for the decay to half the increase of fluorescence is 900 s. Moreover, the stoichiometry N (Aβ(1–42) per CaM) in assay [2] was 2. In assay [3], the half-time of complex formation (10 nM CaM) came to 38 s and the rate constant of the kinetic process of complex formation (10 nM CaM) is 0.018 s⁻¹.
